Experimental data: paper PMC6335420, “The cell cycle regulator GpsB functions as cytosolic adaptor for multiple cell wall enzymes” (Nature Communications, 2019)
Where a chain is given by its changes, count along the chain named. Non-standard residues stand in square brackets, D forms with d. No end group written: not given here. fluorescein = fluorescein fluorescent label on the N-terminus; Nle = CCCC[C@H](N)C(=O)O

T1: BsGpsB_(5-64) (B. subtilis 168, UniProt P0CI74 5-64)
T1 construct: GpsB, Bacillus subtilis 168, residues 5-64; two molecules in the asymmetric unit; also called N-terminal domain of BsGpsB, termini truncated; source: E. coli, purified (Ni-NTA, TEV, Superdex 75); not shown: His6, N-terminal, cleaved
T1 sequence (looked up): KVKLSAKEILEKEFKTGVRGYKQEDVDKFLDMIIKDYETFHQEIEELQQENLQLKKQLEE

T2: BsGpsB1-68 Tyr25Phe (B. subtilis, UniProt P0CI74 1-68, Tyr25Phe)
T2 construct: GpsB, Bacillus subtilis, residues 1-68 (N-terminal domain); also called BsGpsB1-68 Y25F; source: E. coli BL21(DE3), purified (Ni-NTA, thrombin removal of the His6-tag, SEC); not shown: His6, N-terminal, cleaved
T2 sequence (looked up): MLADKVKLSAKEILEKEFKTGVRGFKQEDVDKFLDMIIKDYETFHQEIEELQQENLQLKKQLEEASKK

T3: BsGpsB1-68 Asp31Ala (B. subtilis, UniProt P0CI74 1-68, Asp31Ala)
T3 construct: GpsB, Bacillus subtilis, residues 1-68 (N-terminal domain); also called BsGpsB1-68 D31A; source: E. coli BL21(DE3), purified (Ni-NTA, thrombin removal of the His6-tag, SEC); not shown: His6, N-terminal, cleaved
T3 sequence (looked up): T2 sequence (looked up) with F25Y, D31A

T4: BsGpsB1-68 (B. subtilis, UniProt P0CI74 1-68)
T4 construct: GpsB, Bacillus subtilis, residues 1-68 (N-terminal domain); also called N-terminal domain of B. subtilis GpsB; wildtype BsGpsB1-68; source: E. coli BL21(DE3), purified (Ni-NTA, thrombin removal of the His6-tag, SEC); not shown: His6, N-terminal, cleaved
T4 sequence (looked up): T2 sequence (looked up) with F25Y

T5: BsGpsB1-68 Asp35Ala (B. subtilis, UniProt P0CI74 1-68, Asp35Ala)
T5 construct: GpsB, Bacillus subtilis, residues 1-68 (N-terminal domain); also called BsGpsB1-68 D35A; source: E. coli BL21(DE3), purified (Ni-NTA, thrombin removal of the His6-tag, SEC); not shown: His6, N-terminal, cleaved
T5 sequence (looked up): T2 sequence (looked up) with F25Y, D35A

T6: BsGpsB (B. subtilis, UniProt P0CI74 1-98)
T6 construct: GpsB, Bacillus subtilis, full-length protein; purification not described here; also called full-length B. subtilis GpsB
T6 sequence (looked up): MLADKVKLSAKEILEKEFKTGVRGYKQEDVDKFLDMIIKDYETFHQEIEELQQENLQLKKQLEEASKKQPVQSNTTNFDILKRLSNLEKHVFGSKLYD

T7: BsGpsB1-68 Glu17Ala (B. subtilis, UniProt P0CI74 1-68, Glu17Ala)
T7 construct: GpsB, Bacillus subtilis, residues 1-68 (N-terminal domain); also called BsGpsB1-68 E17A; source: E. coli BL21(DE3), purified (Ni-NTA, thrombin removal of the His6-tag, SEC); not shown: His6, N-terminal, cleaved
T7 sequence (looked up): T2 sequence (looked up) with E17A, F25Y

T8: BsPBP1_(1-32)^Ser7Ala, TAMRA-labelled at position 16 (B. subtilis, UniProt P39793 1-32, Ser16Cys | Ser7Ala, TAMRA (maleimide) at position 16)
T8 construct: PBP1, Bacillus subtilis, residues 1-32; source: E. coli, His-tagged MBP fusion purified (Ni-NTA), labelled, TEV-cleaved, ultrafiltration
T8 peptide (looked up): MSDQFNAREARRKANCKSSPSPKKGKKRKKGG

T9: BsPBP1_(1-32)^Arg8Lys, TAMRA-labelled at position 16 (B. subtilis, UniProt P39793 1-32, Ser16Cys | Arg8Lys, TAMRA (maleimide) at position 16)
T9 construct: PBP1, Bacillus subtilis, residues 1-32; also called BsPBP1^Arg8Lys; source: E. coli, His-tagged MBP fusion purified (Ni-NTA), labelled, TEV-cleaved, ultrafiltration
T9 peptide (looked up): T8 peptide (looked up) with A7S, R8K

T10: BsPBP1_(1-32)^Arg8Ala, TAMRA-labelled at position 16 (B. subtilis, UniProt P39793 1-32, Ser16Cys | Arg8Ala, TAMRA (maleimide) at position 16)
T10 construct: PBP1, Bacillus subtilis, residues 1-32; also called BsPBP1^Arg8Ala; source: E. coli, His-tagged MBP fusion purified (Ni-NTA), labelled, TEV-cleaved, ultrafiltration
T10 peptide (looked up): T8 peptide (looked up) with A7S, R8A

T11: BsPBP1_(1-32)^Ala10Pro, TAMRA-labelled at position 16 (B. subtilis, UniProt P39793 1-32, Ser16Cys | Ala10Pro, TAMRA (maleimide) at position 16)
T11 construct: PBP1, Bacillus subtilis, residues 1-32; source: E. coli, His-tagged MBP fusion purified (Ni-NTA), labelled, TEV-cleaved, ultrafiltration
T11 peptide (looked up): T8 peptide (looked up) with A7S, A10P

T12: BsPBP1_(1-32)^Arg11Ala, TAMRA-labelled at position 16 (B. subtilis, UniProt P39793 1-32, Ser16Cys | Arg11Ala, TAMRA (maleimide) at position 16)
T12 construct: PBP1, Bacillus subtilis, residues 1-32; also called BsPBP1^Arg11Ala; source: E. coli, His-tagged MBP fusion purified (Ni-NTA), labelled, TEV-cleaved, ultrafiltration
T12 peptide (looked up): T8 peptide (looked up) with A7S, R11A

B1: BsPBP1_(1-17) (peptide, UniProt P39793 1-17, looked up)
peptide: MSDQFNSREARRKANSK
notes: PBP1, Bacillus subtilis, residues 1-17; also called first 17 amino acids of BsPBP1; source: synthetic peptide
B2: TAMRA-BsPBP11-32 wildtype (peptide)
peptide: GSMADQFNSREARRKANC(TAMRA‑maleimide)KSSPSPKKGKKRKKGG
notes: PBP1 (ponA), Bacillus subtilis, residues 1-32, cytoplasmic mini-domain; also called TAMRA-labelled BsPBP1 1-32 (Ser16Cys); 16-labelled peptide
B3: BsGpsB_(1-68)^Lys32Glu (domain or fragment)
chain: T2 sequence (looked up) with F25Y, K32E
B4: BsGpsB_(1-68) (domain or fragment, B. subtilis, UniProt P0CI74 1-68, looked up)
chain: T2 sequence (looked up) with F25Y
notes: GpsB, Bacillus subtilis, residues 1-68; also called N-terminal domain of BsGpsB; source: E. coli, purified (Ni-NTA, thrombin, size exclusion)
B5: BsYpbE_(1-21), fluorescein-labelled (peptide)
peptide: MTNMSRVERRKAQNLYEDQNA
modifications: also: fluorescein label, position not given here
notes: also called 21-residue fragment of the cytoplasmic domain of BsYpbE; source: synthetic peptide

Columns and labels:
[1] = target: TAMRA-SpPBP2a23-45 Arg33Lys (S. pneumoniae R6); assay: fluorescence polarisation
[2] = target: Fluorescein-SpPBP2x1-29 (S. pneumoniae R6); assay: fluorescence polarisation
[3] = target: TAMRA-SpPBP2a23-45 Ser32Ala (S. pneumoniae R6); assay: fluorescence polarisation
[4] = target: TAMRA-SpPBP2a23-45 Arg36Ala (S. pneumoniae R6); assay: fluorescence polarisation
[5] = target: TAMRA-SpPBP2a23-45 Arg31Lys (S. pneumoniae R6); assay: fluorescence polarisation
[6] = target: TAMRA-SpPBP2a23-45 Arg31LysArg33Lys (S. pneumoniae R6); assay: fluorescence polarisation
[7] = target: TAMRA-SpPBP2a23-45 Arg33Ala (S. pneumoniae R6); assay: fluorescence polarisation
BsGpsB_(5-64) = target: T1, BsGpsB_(5-64); assay: crystal structure; co-crystallisation of GpsB N-terminal domain with PBP peptide, 1:5 molar ratio protein:peptide, room temperature; details: both partners purified
BsGpsB1-68 Tyr25Phe [8] = target: T2, BsGpsB1-68 Tyr25Phe; assay: fluorescence polarisation; details: both partners purified
BsGpsB1-68 Asp31Ala [9] = target: T3, BsGpsB1-68 Asp31Ala; assay: fluorescence polarisation; details: both partners purified
BsGpsB1-68 = target: T4, BsGpsB1-68; assay: fluorescence polarisation; GpsB protein titrated into TAMRA- or fluorescein-labelled peptide; 10 mM Tris.HCl pH 8.0, 250 mM NaCl, 0.1% reduced Triton X-100; all data fitted to a 1:1 interaction model, Kd ± standard error; details: both partners purified
BsGpsB1-68 Asp35Ala = target: T5, BsGpsB1-68 Asp35Ala; assay: as above; details: both partners purified
BsGpsB1-68 Tyr25Phe [10] = target: T2, BsGpsB1-68 Tyr25Phe; assay: as above; details: both partners purified
BsGpsB = target: T6, BsGpsB; assay: as above; details: both partners purified
BsGpsB1-68 Glu17Ala = target: T7, BsGpsB1-68 Glu17Ala; assay: as above; details: both partners purified
BsGpsB1-68 Asp31Ala [11] = target: T3, BsGpsB1-68 Asp31Ala; assay: as above; details: both partners purified
[12] = target: Q10P-mutated LmPBPA1 peptide (taken as LmPBPA1_(1-20)^Gln10Pro) (L. monocytogenes EGD-e); assay: fluorescence polarisation
[13] = target: LmPBPA1_(1-20)^Arg8Ala,Ser16Arg (L. monocytogenes EGD-e); assay: fluorescence polarisation
[14] = target: LmPBPA1_(1-20)^Arg12Ala (L. monocytogenes EGD-e); assay: fluorescence polarisation
[15] = target: LmPBPA1_(1-20)^Tyr11Ala (L. monocytogenes EGD-e); assay: fluorescence polarisation
[16] = target: LmPBPA1_(1-20)^Arg8Ala (L. monocytogenes EGD-e); assay: fluorescence polarisation
[17] = target: T8, BsPBP1_(1-32)^Ser7Ala, TAMRA-labelled …; assay: fluorescence polarisation; GpsB protein titrated into fluorescently labelled peptide; 10 mM Tris.HCl pH 8.0, 250 mM NaCl, 0.1% reduced Triton X-100; fit to a 1:1 interaction model; details: both partners purified
[18] = target: T9, BsPBP1_(1-32)^Arg8Lys, TAMRA-labelled …; assay: as above; details: both partners purified
[19] = target: T10, BsPBP1_(1-32)^Arg8Ala, TAMRA-labelled …; assay: as above; details: both partners purified
[20] = target: T11, BsPBP1_(1-32)^Ala10Pro, TAMRA-labelled …; assay: as above; details: both partners purified
[21] = target: T12, BsPBP1_(1-32)^Arg11Ala, TAMRA-labelled …; assay: as above; details: both partners purified
BsGpsB_(1-68) = target: B4; assay: fluorescence polarisation; details: both partners purified

Molecule: SpGpsB1-63 (domain or fragment)
- Kd [1]: 360 µM
- Kd [2]: 370 µM
- Kd [3]: 210 µM
- Kd [4]: 270 µM
- Kd [5]: 150 µM
- Kd [6]: > 2000 µM
- Kd [7]: 530 µM

Molecule: B1
- binding result (BsGpsB_(5-64)): binds

Molecule: fluorescein-[Nle]TN[Nle]SRVERRKAQNLYEDQNA [Fluoroescein-BsYpbE1-21]
- Kd (BsGpsB1-68 Tyr25Phe [8]): > 500 µM
- Kd (BsGpsB1-68 Asp31Ala [9]): > 500 µM

Molecule: B2
- Kd (BsGpsB1-68): 120 µM
- Kd (BsGpsB1-68 Asp35Ala): > 2000 µM
- Kd (BsGpsB1-68 Tyr25Phe [10]): > 2000 µM
- Kd (BsGpsB): 160 µM
- Kd (BsGpsB1-68 Glu17Ala): > 1300 µM
- Kd (BsGpsB1-68 Asp31Ala [11]): > 1900 µM

Molecule: B3
- fold reduction in affinity against wild type [12]: > 7 fold
- fold weaker affinity than wild type [13]: > 10 fold
- fold reduction in affinity against wild type [14]: 4 fold
- fold reduction in affinity against wild type [15]: 2 fold
- fold reduction in affinity against wild type [16]: > 15 fold

Molecule: B4
- fold reduction in affinity against wild type [17]: ≥ 6 fold
- fold reduction in affinity against wild type [18]: ≥ 5 fold
- fold reduction in affinity against wild type [19]: ≥ 5 fold
- fold reduction in affinity against wild type [20]: ≥ 6 fold
- fold reduction in affinity against wild type [21]: ≥ 5 fold

Molecule: B5
- Kd (BsGpsB_(1-68)): 13 µM
